Experimental data from the nanobody polyreactivity screen of Harvey et al. (2022).

Assay: yeast display, Sf9 membrane polyspecificity reagent, FACS + sequencing; frameworks hold sequencing errors
How it was run: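 Synthetic nanobody libraries on Saccharomyces cerevisiae BJ5465 were galactose-induced for 36–48 hours, stained 1 hour at 4 °C with 10% biotinylated, detergent-solubilized Sf9 membrane reagent and enriched on streptavidin microbeads. FACS then separated cells into low and high (top ~1%) gates by anti-HA (expression) and streptavidin (reagent binding) fluorescence. Genes were colony-PCR amplified, MiSeq 2 × 250 sequenced and CDR-length filtered. A clone's polyreactivity label is that of its gate of origin.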

Sequence	polyreactivity (PSR sort gate)
QVQLVESGGGLVQAGGSLRLSCAASGSIFIDYVMGWYRQAPGTERELVAAISKRGGSTYYADSVKGRFTISRDNAKNTVYLQMNSLKPEDTAVYYCNAYRIGVYTAKDGYWGQGTQVTVSS	high polyreactivity
QVQLVESGGGLVQAGGSLRLSCAASGSIFIGNAMGWYRQAPGKERELVAAITWSGGSTTYADSVKGRFTISRDNAKNTVYLQMNSLKPEDTAVYYCNASIYQRYDYWGQGTQVTVSS	low polyreactivity
QVQLVESGGGLVQAGGSLRLSCAASGSIFIHNAMGWYRQAPGKERELVPGITTGGSTYYADSVKGRFTISRDNAKNTVYLQMNSLKPEDTAVYYCATARSYLTYSYHYDYWGQGTQVTVSS	low polyreactivity
QVQLVESGGGLVQAGGSLRLSCAASGSIFINYVMGWYRQAPGKERELVAAISSIGDSTYYADSVKGRFTISRDNAKNTVYLQMNSLKPEDTAVYYCNAEIPSLKASPLYRYDYWGQGTKVTVSS	high polyreactivity
QVQLVESGGGLVQAGGSLRLSCAASGSIFIPYAMGWYRQAPGKERELVAAISGSGTSTNYADSVKGRFTISRDNAKNTVYLQMNSLKPEDTAVYYCAARLPYGYLRSKFYYWGQGTQVTVSS	high polyreactivity
QVQLVESGGGLVQAGGSLRLSCAASGSIFISNAMGWYRQAPGKEWELVAAINWTTGRTRYADSVKGRFTISRDNAKNTVYLQMNSLKPEDTAVYYCAARPYGGGRRSIYYYWGQGHQVTVSS	high polyreactivity
QVQLVESGGGLVQAGGSLRLSCAASGSIFISNAMGWYRQAPGTERELVAAISRSGARTYYADSVKGRFTISRDNAKNTVYLQMNSLKPEDTAVYYCAVVGYSPYKYDYWGQGTQVTVSS	high polyreactivity
QVQLVESGGGLVQAGGSLRLSCAASGSIFISYAMGWYRQAPGKERELVAAISRSAGRTYYADSVKGRFTISRDNAKNTVYLQMNSLQPEDTAVYYCAASGYKNGVYTYGYWGQGTQVTVSS	high polyreactivity
QVQLVESGGGLVQAGGSLRLSCAASGSIFITYAMGWYIQAPGKERELVTAIRDSGDRTYYADSVKGRFTISRDNAKNTVYLQMNSLKPEDTSVYYCAAVLYSRLYWDRLDYWGQGTQVTVSS	low polyreactivity
QVQLVESGGGLVQAGGSLRLSCAASGSIFITYAMGWYRQAPGKERELVAAIRDSGDRTYYADSVKGRFTISRDNAKNTVYLQMNSLKPEDTAVYYCAKRAWGSPYGYWGQGTQVTVSS	low polyreactivity
QVQLVESGGGLVQAGGSLRLSCAASGSIFITYAMGWYRQPPGKERELVATITSRSGGTYYADSVKGRFTISRDNAQNTVYLQMNSLKPEDTAVYYCNAVYTYPVFHGMGYWGQGTQVTVSS	high polyreactivity
QVQLVESGGGLVQAGGSLRLSCAASGSIFITYAMVWSRQAPGKERELVAAIRDSGDRTYYADSVKGRFTISRDNAKNTVYLQMNSLKPEDTAVYYCAADYFVQVPDYYYASEYGYWGQGTQVTVSS	low polyreactivity
QVQLVESGGGLVQAGGSLRLSCAASGSIFIVNVMGWYRQAPGKERELVAGITTNGGITYYADSVKGRFTISRDNAKNTVYLQMNSLKPEDTAVYYCATRSGSPSSIEMDYWGQGTQVTVSS	low polyreactivity
QVQLVESGGGLVQAGGSLRLSCAASGSIFIVYAMGWYRQAPGKERELVAAISYRGGSTYADSVKGRFTISRDNAKNTVYLQMNSLKPEDTAVYYCAADDLSYVGYYYGYVDDDYWGQGTQVTVSS	high polyreactivity
QVQLVESGGGLVQAGGSLRLSCAASGSIFIWYSMGWYRQAPGKERELVASITYSAGRTYYADSVKGRFTISRDNAKNTVYLQMNSLKPEDTAVYYCAADSPYVYTLDSYGEGDYWGQGSQVTVSS	low polyreactivity
QVQLVESGGGLVQAGGSLRLSCAASGSIFIYYAMGWTRQAPGKERELVATISSDDRTNYTDSVKGRFTISRDNAKNTVYLQMNSLKPEDTAVYYCAADRYWGGRDGPEYDYWGQGTQVTVSS	low polyreactivity
QVQLVESGGGLVQAGGSLRLSCAASGSIFIYYAMGWYRQAPGKERELVAAISSSGGSTYYADSVKGRFTISRDNAKNTVYLQTNSLKPEDTAVYYCATVPYRYYDDDYWGQGTQVTVSS	high polyreactivity
QVQLVESGGGLVQAGGSLRLSCAASGSIFIYYAMGWYRQPPGKERELVAAISYSDGDTYYADSVKGRFTISRDNAKNTVYLQMNSLKPEDTAVYYCAAEVTLSYDVGWEDYWGQGTQVTVSS	high polyreactivity
QVQLVESGGGLVQAGGSLRLSCAASGSIFIYYTMGWYRQAPGKERELVAAISWRGGRTYYADSVKGRFTISRDNAKNTVYLQMNSLKPEDTAVYYCNAQPSVYYGRWGLNYGYWGQGTQVTVSS	high polyreactivity
QVQLVESGGGLVQAGGSLRLSCAASGSIFKCNSRGWYRQAPVKERELVAAITFSGSSTFYADSVKGRFTISRDTAKNTVYLQMNSLKTEDSALYYCNAVRRQQFGSWGQGTQGTVSS	high polyreactivity

Sequence	polyreactivity (PSR sort gate)
QVQLVESGGGLVQAGGSLRLSCAASGSIFKDYAMGWYRQAPGKERELVAAITSGGRTNYADSVKGRFTISRDNAKNTVYLQMNSLKPEDTAVYYCAARKGKETLYHSTPPYYYWGQGTQVTVSS	low polyreactivity
QVQLVESGGGLVQAGGSLRLSCAASGSIFKFYTMGWYRQAPGKERELVAAISWSGGRTYYADSVKGRFTISRDNAKNTVYLQMNSLKPEDTAVYYCAVPRVGLHGIGSDYWGQGTQVTVSS	high polyreactivity
QVQLVESGGGLVQAGGSLRLSCAASGSIFKFYTMGWYRQAPGKERELVATISRSGGGTFYADSVKGRFTISGDNSKNTVYLQMNSLKPEDTAVYYCSADPAFTHYPFGYGYWGQGTQVTVSS	low polyreactivity
QVQLVESGGGLVQAGGSLRLSCAASGSIFKGNAMGWYRQAPRKERELVATITSSGDSTNYADSVKGRFTISRDNAKNTVYLQMNSLKPEDTAVYYCATEPFRYSLAGGYWGQGTQVTVSS	low polyreactivity
QVQLVESGGGLVQAGGSLRLSCAASGSIFKGYAMGWYRQAPGKERELVAAISGGGGSTYYADSVKGRFTISRDNAKNTVYLQMNSLKPEDTAVYYCNRDDSWSTTGAYDYWGQGTQVTVSS	low polyreactivity
QVQLVESGGGLVQAGGSLRLSCAASGSIFKGYAMGWYRQAPGKERELVASISWRGDNTYYADSVKGRFTISRDYAKNTVYLQMNSLKPEDTAVYYCNAQSREHYFFIYDYWGQGTQVTVSS	high polyreactivity
QVQLVESGGGLVQAGGSLRLSCAASGSIFKIYAKGWYRQAPGKERELVASITGSGGSTYYADSVKGRFTISRDNAKNTVYLQMNSLKPEDTAVYYCAAAVLGSSKSEVDPDRPEYYYWGQGTQVTVSS	low polyreactivity
QVQLVESGGGLVQAGGSLRLSCAASGSIFKIYAMGWYRQAPGKERELVAAITINGGSTYYADSVKGRFTISRDNAKNTVYLLMNSLKPEDTAVYYCAADFFHRAGWYFAYGHWGQGTQVTVSS	low polyreactivity
QVQLVESGGGLVQAGGSLRLSCAASGSIFKKYAMGWYRQAPGKERELFAAITRGTYYADSVKGRFTISRDNAKNTVYFQMNSLKPEDTAVYFCNREYWGRGYYRVRGEYDYWGQGTQVTVSS	low polyreactivity
QVQLVESGGGLVQAGGSLRLSCAASGSIFKKYAMGWYRQSPGKERELVAAISSTGGSTKYADSVKGRFTISRDNAKNTVYLQMNSLKPEDTAVYYCAVRYKWPYDYWGQGTQVTVSS	high polyreactivity
QVQLVESGGGLVQAGGSLRLSCAASGSIFKPYAMGWYRQAPGKERELVAAISSSGGSTYYADSVKGRFTISRDNAKNTVYLQMNSLKPEDTAVYYCNADWYYAGYGYWGQGTQVTVSS	low polyreactivity
QVQLVESGGGLVQAGGSLRLSCAASGSIFKPYVMGWYRQAPGKERELVAAITSSGVSTYYADSVKGRFTISRDNAKNTVYLQMNSLKPEDTAVYYCAADQYLGRAWRRRGYYWGQGTQVTVSS	high polyreactivity
QVQLVESGGGLVQAGGSLRLSCAASGSIFKQNNMGWYRQAPGKERELVAAISSGGSTYYADSVKGRFTISRDNAKNTVYLQMNSLKPEDTAVYYCAKYYDWDYYLPLEGDYWGQGTQVTVSS	low polyreactivity
QVQLVESGGGLVQAGGSLRLSCAASGSIFKRYAMGWYRQAPGKERELVAAISTSGGRTYYADSVKGRFTISRDNAKNTVYLQMNRLNQEDTAVYYCAADIWARYYFWGFEHDYWGQGTQVTVSS	low polyreactivity
QVQLVESGGGLVQAGGSLRLSCAASGSIFKRYARGWYRPAPGKERELVAAISWSGGNTYYADSVKGRFTISRDNSKNTVYLQMNSLKPEDTAVYYCAKRYRGGYYYPYNYWGQGTQVTVSS	high polyreactivity
QVQLVESGGGLVQAGGSLRLSCAASGSIFKSYAMGWYRQAPGKERELVAAISGRTGSTYYADSVKGRFTISRDNAKNTVSLQMNSLKPEDTAVYYCAAKSQSLYPFAMNYWGQGTQVTVSS	high polyreactivity
QVQLVESGGGLVQAGGSLRLSCAASGSIFKSYAMGWYRQAPGKERELVAAISGSGGRTYYADSVKGRFTISRDNAKNTAYLQMNSLKPEDTAVYYCNALASIRTHTGYAYSPPYDYWGQGTQVTVSS	high polyreactivity
QVQLVESGGGLVQAGGSLRLSCAASGSIFKTNAMGWYRQAPGKERELVAGISNGGSTNYADSVKGRFTISRDNAKNTVYFQMNSLKPEDTAVYYCAAEYEYLWSQYLTDYGYDSWGQGTQVTVSS	low polyreactivity
QVQLVESGGGLVQAGGSLRLSCAASGSIFKVYAMGWYRQAPGTERELVAGITLNGGSTYYADSVKGRFTISRDNAKNNVYLQMNSLKPEDTAVYYCNAVYSYYYRWYYDFDYWGQGTQVTVSS	high polyreactivity
QVQLVESGGGLVQAGGSLRLSCAASGSIFKYAMGWSRQAPGKERELVAAINQRGGRTYYADSVKGRFTISRDNAKNTVYLQMNSLKPEDTAVYYCNAYYLRTSSTEYDYWGQGTQVTVSS	high polyreactivity
